Several values for one entry are separate records, joined by “and”; a condition that tells them apart may be missing. Equal values may be shown once. Read-outs that look alike come from different tables or passages of the source. Values belong to the substance of their own block, whether it stands above or below them.
Key:
C3b = C3b (UniProt P01024); experiment: SPR
C3b C3b (Homo sapiens) [1] = molecular target: C3b C3b (Homo sapiens) (UniProt P01024); conditions: cited from earlier work
C3b C3b (Homo sapiens) [2] = molecular target: C3b C3b (Homo sapiens) (UniProt P01024); conditions: cited from earlier work; remark: listed apart in the source

C3b C3b (Homo sapiens), sequence (P01024 566-670): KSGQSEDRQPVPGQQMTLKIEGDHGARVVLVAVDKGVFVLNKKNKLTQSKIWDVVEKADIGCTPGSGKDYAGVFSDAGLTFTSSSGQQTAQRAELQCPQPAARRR

Substance: Factor H CCPs 1-4 (from UniProt P08603)
- Kd (C3b C3b (Homo sapiens) [1]): 11 µM and 14 µM

Substance: Factor H (from UniProt P08603 19-1231) (natural protein)
- Kd (C3b): 0.647 µM

Substance: Factor H CCPs 19-20 (from UniProt P08603)
- Kd (C3b C3b (Homo sapiens) [2]): 5.4 µM and 4 µM

Other lines, results leading:

- Kd (C3b): 1.52 µM
Substance: Factor H-like protein 1 (natural protein)

- KD1 (1:2 binding model, first of two independent sites) (C3b): 1.7 µM
- KD2 (1:2 binding model, second of two independent sites) (C3b): 5.6 µM
Substance: FHΔ10–15

— paper PMC4707092
